Experimental findings from publication PMC5543128 are described below.

The data set has as its target T1, FAM-αC-conotoxin PrXA (Conus parius, UniProt P0C8S5 52-83).
T1 chain: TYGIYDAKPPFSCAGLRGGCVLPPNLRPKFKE
Description: fluorescence anisotropy; no anisotropy change. The settings on record: tags: 5,6-carboxyfluorescein (FAM). (In fluorescence polarisation assays a small probe gives low polarisation when free and higher when bound to something large.)

B1: S1 scramble (ssDNA)
DNA: GCCTGTTGTGAGCCTCCTGTCGAAGGGGATGGACCCCTACTTCATTCGCCCGCCTTGAGCGTTTATTCTTGTCTCCC
In the case of B1, the binding result is recorded as “no binding”.
